Measurements from patent US20220017635A1 (Kyowa Kirin, published 2022).
Values belong to the binder of their own block, whether it stands above or below them.

Legend:
[1] = molecular target: T1, mouse TfR on CHO cells (mouse, UniProt Q62351 1-763); assay: flow cytometry on mouse TfR/CHO cells
T1 construct: also called mouse TfR/CHO
Procedure: Subsequently, an epitope analysis for various types of TfR antibodies was carried out.

[2] = molecular target: T2, chimeric TfR A07 (human/mouse chimera, UniProt P02786 89-760); assay: ELISA on immobilized chimeric TfR; grade = binding relative to His-huTfR (++ 0.5 or more, + 0.2 to less than 0.5)
T2 construct: also called M365L-V366E-E369Q
Procedure: (§1) ELISA was carried out by the following method. To a 96-well immunoplate (NUNC, Inc.) on which an antigen protein was immobilized, 1% (w/v) BSA-PBS(−) pH 7.0 without KCl (hereinafter referred to as blocking solution, Nacalai Tesque, Inc.) was added to perform blocking at room temperature, and thereafter, the anti-TfR antibody diluted with the same solution was added thereto and a reaction was allowed to proceed at room temperature for 1 hour. Thereafter, washing was performed with 0.05% (w/v)-tPBS (1×) without KCl (pH 7.2) (hereinafter referred to as washing solution, Nacalai Tesque, Inc.), Anti-Human IgG (Fc) Goat IgG Fab″-HRP (IBL, Inc.) diluted with the blocking solution was added thereto, and a reaction was allowed to proceed at room temperature for 1 hour. Thereafter, washing was performed with the washing solution, and 1-Step (registered trademark) Ultra TMB-ELISA Substrate Solution (Thermo, Inc.) was added thereto, and a reaction was allowed to proceed at room temperature. The coloring reaction was stopped by adding a 5 N HCl solution, and an absorbance at a wavelength of 450 nm (reference wavelength: 570 nm) was measured using a plate reader (EPOCH 2: BioTek Instruments, Inc.).
(§2) Further, a value obtained by subtracting the absorbance at the reference wavelength of 570 nm from the absorbance at a wavelength of 450 nm was regarded as the binding activity to any of various types of antigen proteins, and a case where a value obtained by dividing the binding activity to any of various types of chimeric TfR by the binding activity to His-huTfR was 0.5 or more was denoted by ++, a case where the value was 0.2 or more and less than 0.5 was denoted by +, and a case where the value was less than 0.2 was denoted by −.

[3] = molecular target: T3, huTfR with mouse apical domain (human/mouse chimera, UniProt P02786 89-760); assay: as above
T3 construct: His tag added; also called chimeric protein of human TfR extracellular domain with mouse apical domain
T3 chain: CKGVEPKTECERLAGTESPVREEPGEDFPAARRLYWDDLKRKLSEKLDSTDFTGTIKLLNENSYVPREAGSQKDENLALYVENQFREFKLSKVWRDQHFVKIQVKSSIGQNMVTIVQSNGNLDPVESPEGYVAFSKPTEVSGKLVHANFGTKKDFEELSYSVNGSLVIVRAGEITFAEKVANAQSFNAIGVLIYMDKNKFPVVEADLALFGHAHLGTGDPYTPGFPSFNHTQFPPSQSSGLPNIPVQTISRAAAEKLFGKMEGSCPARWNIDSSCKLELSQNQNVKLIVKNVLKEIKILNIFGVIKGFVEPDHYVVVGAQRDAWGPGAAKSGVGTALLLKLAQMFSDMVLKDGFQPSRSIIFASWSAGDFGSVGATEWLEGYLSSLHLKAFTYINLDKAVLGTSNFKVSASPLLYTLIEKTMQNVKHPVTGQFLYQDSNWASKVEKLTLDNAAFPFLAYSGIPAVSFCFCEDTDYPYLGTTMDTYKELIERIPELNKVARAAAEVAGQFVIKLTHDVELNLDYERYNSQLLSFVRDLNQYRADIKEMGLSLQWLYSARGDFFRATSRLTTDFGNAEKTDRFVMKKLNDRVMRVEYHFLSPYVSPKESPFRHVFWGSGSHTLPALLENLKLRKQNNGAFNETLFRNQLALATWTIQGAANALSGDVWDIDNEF
Procedure: as §1, §2

[4] = molecular target: T4, chimeric TfR A03 (human/mouse chimera, UniProt P02786 89-760); assay: as above
T4 construct: also called D245E-K261E
Procedure: as §1, §2

[5] = molecular target: T5, chimeric TfR A02 (human/mouse chimera, UniProt P02786 89-760); assay: as above
T5 construct: also called D352S-S355A-D356R-K358N
T5 chain: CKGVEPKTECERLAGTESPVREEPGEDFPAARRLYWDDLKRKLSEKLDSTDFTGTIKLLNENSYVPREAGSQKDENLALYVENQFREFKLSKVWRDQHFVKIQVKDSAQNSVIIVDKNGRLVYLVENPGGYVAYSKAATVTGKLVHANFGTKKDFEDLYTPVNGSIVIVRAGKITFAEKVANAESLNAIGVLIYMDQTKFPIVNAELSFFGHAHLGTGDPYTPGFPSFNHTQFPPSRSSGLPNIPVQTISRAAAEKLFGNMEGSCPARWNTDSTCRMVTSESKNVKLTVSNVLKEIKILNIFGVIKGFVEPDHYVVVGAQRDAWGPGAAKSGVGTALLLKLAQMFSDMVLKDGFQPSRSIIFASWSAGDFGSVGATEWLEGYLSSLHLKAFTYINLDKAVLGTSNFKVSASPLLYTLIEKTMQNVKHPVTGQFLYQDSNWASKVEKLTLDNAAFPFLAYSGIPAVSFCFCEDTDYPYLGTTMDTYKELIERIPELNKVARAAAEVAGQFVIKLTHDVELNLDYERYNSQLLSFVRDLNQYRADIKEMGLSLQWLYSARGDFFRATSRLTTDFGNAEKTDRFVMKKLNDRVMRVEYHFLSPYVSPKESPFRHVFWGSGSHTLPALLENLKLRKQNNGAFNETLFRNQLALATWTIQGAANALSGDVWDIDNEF
Procedure: as §1, §2

[6] = molecular target: T6, chimeric TfR A05 (human/mouse chimera, UniProt P02786 89-760); assay: as above
T6 construct: also called P249S-L274F
Procedure: as §1, §2

[7] = molecular target: T7, chimeric TfR A14 (human/mouse chimera, UniProt P02786 89-760); assay: as above
T7 construct: also called D204Q-K205S-E369Q
Procedure: as §1, §2

[8] = molecular target: T8, chimeric TfR A04 (human/mouse chimera, UniProt P02786 89-760); assay: as above
T8 construct: also called D245E-K261E-D356R
Procedure: as §1, §2

[9] = molecular target: T9, huTfR with mouse protease-like domain (human/mouse chimera); assay: ELISA on immobilized chimeric TfR
T9 construct: His tag added; also called chimeric protein of human TfR extracellular domain with mouse protease-like domain
T9 chain: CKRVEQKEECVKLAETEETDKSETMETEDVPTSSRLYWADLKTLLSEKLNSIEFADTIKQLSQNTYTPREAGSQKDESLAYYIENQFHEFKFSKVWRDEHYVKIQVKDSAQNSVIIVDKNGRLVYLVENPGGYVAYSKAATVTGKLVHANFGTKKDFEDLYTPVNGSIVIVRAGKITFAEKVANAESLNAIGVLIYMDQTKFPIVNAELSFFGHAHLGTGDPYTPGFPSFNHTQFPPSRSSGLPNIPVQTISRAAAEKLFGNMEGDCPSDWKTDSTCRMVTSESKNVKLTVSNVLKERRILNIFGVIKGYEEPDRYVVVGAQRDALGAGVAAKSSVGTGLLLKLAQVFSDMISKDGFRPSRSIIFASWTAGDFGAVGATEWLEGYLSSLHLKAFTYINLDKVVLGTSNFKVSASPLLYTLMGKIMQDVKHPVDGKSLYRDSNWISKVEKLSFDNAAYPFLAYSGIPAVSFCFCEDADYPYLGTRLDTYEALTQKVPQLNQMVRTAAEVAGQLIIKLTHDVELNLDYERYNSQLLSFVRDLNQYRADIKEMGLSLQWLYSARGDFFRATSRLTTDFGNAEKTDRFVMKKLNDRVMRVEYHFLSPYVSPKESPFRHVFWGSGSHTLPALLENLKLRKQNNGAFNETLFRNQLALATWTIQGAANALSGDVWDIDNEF
Procedure: as §1, §2

[10] = molecular target: T9, huTfR with mouse protease-like domain; assay: ELISA on immobilized chimeric TfR; grade = binding relative to His-huTfR (++ 0.5 or more, + 0.2 to less than 0.5)
Procedure: as §1, §2

[11] = molecular target: T3, huTfR with mouse apical domain; assay: ELISA on immobilized chimeric TfR
Procedure: as §1, §2

[12] = molecular target: T6, chimeric TfR A05; assay: ELISA on immobilized chimeric TfR
Procedure: as §1, §2

binding result [1]: no binding
ratio of ELISA binding activity (A450-A570) to chimeric TfR over that to His-huTfR [2]: ≥ 0.5 ratio
ratio of ELISA binding activity (A450-A570) to chimeric TfR over that to His-huTfR [3]: ≥ 0.5 ratio
ratio of ELISA binding activity (A450-A570) to chimeric TfR over that to His-huTfR [4]: ≥ 0.5 ratio
ratio of ELISA binding activity (A450-A570) to chimeric TfR over that to His-huTfR [5]: ≥ 0.5 ratio
ratio of ELISA binding activity (A450-A570) to chimeric TfR over that to His-huTfR [6]: ≥ 0.5 ratio
ratio of ELISA binding activity (A450-A570) to chimeric TfR over that to His-huTfR [7]: ≥ 0.5 ratio
ratio of ELISA binding activity (A450-A570) to chimeric TfR over that to His-huTfR [8]: ≥ 0.5 ratio
ratio of ELISA binding activity (A450-A570) to chimeric TfR over that to His-huTfR [9]: < 0.2 ratio
B1: 2230 (antibody, V domains shown)
VH: QVQLQESGPGLVKPSETLSLTCTVSGGSISSYYWSWIRQPPGKGLEWIGYIYYSGSTNYNPSLKSRVTISLDTSKNQFSLRLSSVTTADTALYYCTREAGYYDSSGYYGFDYWGQGTLVTVSS
VL: DIQMTQSPSSLSASVGDRVTITCRASQGISSWLAWYQQKPEKAPKSLIYAASSLQSGVPSRFSGSGSGTDFTLTISSLQPEDFATYFCQQYYNYPYTFGQGTKLEIK
notes: From a hybridoma; light chain other than A27; also called clone 2230; anti-TfR antibody 2230

ratio of ELISA binding activity (A450-A570) to chimeric TfR over that to His-huTfR [2]: ≥ 0.5 ratio
ratio of ELISA binding activity (A450-A570) to chimeric TfR over that to His-huTfR [4]: ≥ 0.5 ratio
ratio of ELISA binding activity (A450-A570) to chimeric TfR over that to His-huTfR [5]: ≥ 0.5 ratio
ratio of ELISA binding activity (A450-A570) to chimeric TfR over that to His-huTfR [10]: ≥ 0.5 ratio
ratio of ELISA binding activity (A450-A570) to chimeric TfR over that to His-huTfR [7]: ≥ 0.5 ratio
ratio of ELISA binding activity (A450-A570) to chimeric TfR over that to His-huTfR [8]: 0.2 to 0.5 ratio
ratio of ELISA binding activity (A450-A570) to chimeric TfR over that to His-huTfR [11]: < 0.2 ratio
ratio of ELISA binding activity (A450-A570) to chimeric TfR over that to His-huTfR [12]: < 0.2 ratio
B2: T14 (antibody, V domains shown)
VH: EVQLVESGGGLVQPGGSLRLSCVVSGGTFSNFNMNWVRQAPGKGLEWVSYISGSSSTIYYADSVKGRFTISRDNAKNSLYLQMNSLRDEDTAVYYCVSSSWYYWGQGTLVTVSS
VL: not shown
notes: IgG4PE or IgG4PE R409K constant region; also called anti-TfR antibody T14
